Results as given in a protein production outcome set (Wang et al. 2014).

assay: label from the status in PepcDB records

| Sequence | protein production |
| --- | --- |
| MLAMHGSKEKMMTSYQTIIQNHQPLAPARYTAKRIIKNDAEALQIATELSQSFKEKSIQRDAERVLPFDEIEAFSQSGLWAITVPKRYGGAEVSSLTLAKIIALFSGVDGSIGQIPQNHFYALEVLRNTGTEQQKQRLYQEVLSGLRLGNALAEFKPKNASLKQTQIKAIETGYVINGEKFYCTGSLFAHRIPTLVIDEEGREYLAFVRSDSEGLSLIDNWTGFGQRVTGSGGVKFTQVFVAAEDVIPFDSAFQHPTLVGPFAQLMHAAIEVGIARAAFEEALKRVHAARPWIDSNVDAAAQDPLTIYEIGRVAADVHASEALLKHAALTIDEVRLNTNVETIAKASIAVAKIRAHSTETALKASSKLIELAGSRGSQSVDGLDRFWRNARVHTLHDAARWKYYFIGNYVLNDIFPPRRGTL | failed |
| MLAVLIGQHGEYLLIFLVSPGQFQEGVMTVHDHWQMDASAPELYERYLVPAITSVWADDLLDRIDPAKGECVLDVACGTGVVARRLAERGHVGRLVGIDLNGAMLAVARAKSSDVEWTEGSALDLPFATRSFDVVLCQLGLQFFPDRPQALREMARVLKPSGRLGLSVYSAIEHTPAANAFVQALDGFLGPESSRTKRAEHLTCNADEVGNWVRQAGFDRVGVETVTKQIGFPSALDYVRFQLTATPMAALLTREDDAGRERTIAAIADDVAARLDPSILANGRLTFPQESFVVVASLR | failed |
| MLAYQGLFQNGLMQVSPSYFSQTYLLGDVNYQTVGLDDKGAIVEKYSDLINSLDDKTNFQLTIFNQKVNLEKFRKSILYPLQEDGFDTYRDELNRMMDANLEAGENNFSAVKFLSFGKSDQTPKLAFRSLSQIGEYFKSGFSEIDVSLGLLGGEERVNVLADMLRGENHLPFSYKDLTLSGQSTKHFIAPTYLSFKHKNHIELDDRLLQIVYVRDYGMELGDKFIRDLMQSDLEVMISLHAKGSTKSETMTKLRTKKTLMESQKIGEQQKMARTGIYLEKVGHVLENNIDEAEALLQTMTQTGDKLFDTVFLIGVLADTEDQLKQSLDIIKQVAGSNDMIIDNLTYMQEAAFNSLLPFGKNYLEGVSRSLLTSNIAVNAPWTSVDIHDKGGKFYGINQISSNIISIDRGKLNTPSGLILGTSGAGKGMATKHEIISTKLKEADSDTEIIIVDPENEYSIIGQAFGGESIDIAPDSTTFLNVLELSDENMDEDPVKVKSEFLLSWIGKLLDRKMDGREKSLIDRVTRLTYKHFDTPSLVEWVFVLSQQPEQEAKDLALDMELYVEGSLDIFSHRTNIKTDSHFLIYNVKKLGDELKQIALMVIFDQIWNRVVKNQKLGKKTWIYFDEMQLLLLDKYASDFFFKLWSRVRKYGAIPTGITQNVETLLLDANGRRIIANSEFMILLKQAKSDREELVHMLGLSKELEKYLVNPEKGAGLIKAGSTVVPFKNKIPQHTKLFDIMSTDPEKMRTLEHHHHHH | failed |
| MLCRKNSSLVDRGNVPVYLNVYDLTPINGYAYWLGLGVYHSGVEVHGIEYAYGAHEYPSTGIFEGEPKQCEGFTFRKSILIGKTDLGPLEVRATMEQLADNYKGSSYNLITKNCNHFCDETCIKLTGNPIPSWVNRLARIGKFSGFMCNCVLPATINATRFGNNRVNQDKSCEAENEKKKLTSVSSRERSTIATPSSSSSSPSVQVRGRSRKRRPRALQPSSPLTLGSSSV | failed |
| MLDAKTSTLLWAAETFTLAVLLGTLWLHRPSRRHNLYFAAGFLATGFGTVMVALRGDISSFLSIQVGNTLALSAFGFWLAGLLSLEQRKLGGWIAIPALLWIAGMFVPSVPEDMVARILLYHASAATGYFMLAGVLLGSRARASRSRKVLATILILQAFAGAIVASIVIPANAAVPNAIPMTSALSISGMLGFTAIIMISAKIIMEDTEIRLHRLAMTDHLTGVLNRRGLLEEFEHIKKRSHGSDRYVALVLFDIDHFKKINDRYGHQSGDAVLVHFCNIAQRVIGERGLFVRMGGEEFALVAEVESPSSTVTLAEAIRSNLRLSKITARNEAIKVTTSVGISEAMIKDADLSVMMTEADRALYAAKKAGRNRTVIHVNSANVVVPAPDRDENPMDNNADRQVAALNRISAIASR | failed |
| MLDDVLALIREHDRFFITTHLGPDGDAVGSQLALGRFLEKMGKSVAMVNADEVDYNLDWMPGAGDIAVFDGSLGQHEALAEAEVAFVLDTNDEERIGKVGSLVRDATATTVLVDHHLEPEHWFDVFFVREEAAATGELVYEIIDGLAPDLIDEGIATALYTAIMTDTGSFRYSSVTPALHRSVADILERGGIGPAPIHETIYDRKSMPGLRLLGRMLNRIRLRYNGQLGYSVVTQRMVEDTGASWDDKQGFVNYVLSIEDVKTALLFSETDDGAKISFRSEADVRVDQWARHFGGGGHRNAAGAYVKRPTFEKTIETVIDAASDYIAFDARHAPDDDLSPEDQSYLETLLDDPSDSPLEHHHHHH | failed |
| MLDKNKFIQINLVPCHFCYSFLSYASILEAIMKFKNILVVLNPSNEKQYALARAVRLVEEQKNETKVKITALLSVYDLSYEMSALLSSEERSEMHQQVIEKHRHAVQYYLDKYANPEIELQSHIVWNSNEADAINEEVENNNYDLVVKYTKDEEKLTSLIFTPIDWQLLRKCPIPVLMVRDGDWKHPRRILVAVNVSGEQEYQDEFNQELVETGISLAENLNRGNVHLVAAYPSAPINMAIDLPEFNTSGYENGIRGQHLINMKALRQKFGIDEDHTHVREGFPEEVIPEVAKEIEAELVILGTVGRTGLSAALLGNTAEHVISKLSCNLLGIKPSKKDD | failed |
| MLDPATIVAVPAPGRACGPCTLCCKVYDVPAVESPAGRWCRHVRSGGGCGIHAERPDHCRAFHCLWMTETWIGPEWRPDRAKMVLSLDPVTRFLNVQVDPGQAGAWKRAPYHDQLRRWAAASLPLQRYVLVHVNKVTTVVLPDRDVALGTFGPGDRLVGRERMTPAGMTADVEKVSQLA | failed |
| MLDRLRSIPVRGLFARLFSWLFFGLAFALVAATIVDVFELLNSDEPLMQAMINGVNGSIIALAVYELAMVIRSEYSGRSETHDIVTMMRRTLPRFISTVCVAMSLEGLIMIIKYSQLDLAGNLVYPVAIIASTALLLAALGVFLKMAPKEIGANGCDESCTTK | failed |
| MLDSFEILKALKSLDLLKNAPSWWWPNALKFEALLGAVLTQNTKFEAVLKSLENLKNAFILENDDEINLKKIAYIEFSKLAECVRPSGFYNQKAKRLIDLSKNILKDFQSFENFKQEVTREWLLNQKGVGKESADAILCYVCAKEVMVVDKYSYLFLKKIGIEIEDYDELQHFFEKGVQENLNSALALYENTIPLAQLYARFHGKIVEFSKQKLELKL | failed |
| MLDSINRVLDRPDFGKLFLRVSFSVLMLFHGWHKLHGGIGFIEGMLTNAGLPAFVGYGVYVGEIIIPIMMILGIFTRPAALIFSFTMFVASLLVHSGDFLSLEKTGAWAVEGAAVFFFAGIAIALLGSGKYSVMSNPRWR | failed |
| MLDVRARAALSGPLDRAAAMLDRPAVTPNRLTALGLLTGLASAGSAAAGWWPAAAALWLLSRLADGLDGPLARRRGTANSSGAGGFLDISADFLVYGAFVVGVAVGVGGPALPFLLVLLTYYVNGTAFLAFSSIAERTGRRGDGRLSGGRSLNFLGGLAEGGETIAVHTLWCLLPGFAHTIAWVWAAVVAVTAAHRVVTGYRQLR | failed |
| MLEGEFLSVAELKDLTLSLASKFLNNLLASKLLVSKQLFIDRKKELGLLEERLKSGKAQFIVIYGRRRVGKTALILEFLRRHGGLYLLARETSEIENLERFSLRLAEYFNDSFLKKNPLRSLDAFFEYLSTKAEKPFIIAIDEFPYLVKGNKALPSILQEYWEMKLSKKKIFLIVSGSSVSMTERLLGYKSPLYGRRTAQLKLKPLDFFNAREFLPKYSLEDFVRVYGILGGTPAYLLEFSDEKSLEENLKSYFRVDSLLYGDALFILREELDEPRNYFAIMEAIARGNTTLGEIVNETGLERATVGKYLSVLIDLDLVRREVPITASRKSRKGRYYIADNYFAFWFRYVYPNADLIESGNGELLVDTVMDDIDHYTGEVFEGVAKEFLLRLNKSERLPFRFSRVGRWWYKNEEIDLVALNEREKKVLFIEVKWKDLSKREARGILKDLKRKAKLVGLDEWGKHYGLVAKSVRGKDEIKEEGWLAWDLEDIHRMAFLEHHHHHH | failed |
| MLEHLIKISRRNWSSLKVIILAGGRGKRITLFKPFLVVCGKPLISWAFDAVNKLSDKVYLGINQSHPLFTIFKHSIFKIFPTPDISYENDVKYVVESLGPPILVLPVDIAFINNNIINNLIERCAVDMCTLKSYGSYLGVTYWTGLNFSNYTDIEVKEKLYNINTWEDYIKANKECNILLEHHHHHH | not failed |
| MLELIIILLFIILSAIFSASETAYTSLSIIQIQDIRKKGKSGISVYNLVQSPSKLITTILIGNNISNIVASTLTTKFVLEKYGNSALAISTGLITIIVLIFAEILPKQIAILNNEIIALSTSFFLKPLIFIFTPLIYIINKIIKKILNLFKVKTSSQMTKESIKNMLSLAGSLGILKNDSRIFMQKMLDIDQVRASEIMTHRTGVFSLSSSSKLKDVIKLIKEEGYSRIPIYKGQSREQIIGILIAKDLIEVNKKDMNKNVSQFIKPAVFVQQNKRIKDILDIMRKKQKIMAIVIDEYGGFSGILTIEDIVEKIFGAISDEYDIKEEKPLITQINDNTYSILGETTFDEIEEAIGISIKHKEYTNTIGGYLIDLLDKIPTKNETVKTNDGEYFIKEIQNNKIETITFIKSKK | failed |
| MLELLTLLLPVAAASGWYAAARHHGRNLSAGLNDGLQRAYQTPTDTAIGARADEAFHLLRQIADSSAKTLELQLALGGLLRRSGELSKAIELHERLHSQPQMSDEQLHAIRFELGMDYLSAGLLDRAETVFAGLTATASHGKASLQQMLAIYQSEKDWVRAAECARSLKKFDAGQRNATLAHLLCEQAESAIARGETVAAHAHLQQALAEDPRCVRATLLKSRLALQRQQWAEAGTLLRSVEFQNPAFLPEVIGQLRLCHASLRDMDGYLTYLDYVYQRYRTEAAALLLADELAQREGAPAAASYLTGLLSERSSLNLIRRTLHYAGAATCIDGDCLSILRRCLTALDGLASMHPGYGCVQCGYECRELHWHCPTCRAWETIQPADPGVGFSGKTPATTPS | failed |
| MLELLYTALLYLIQPLIWIRLWVRGRKAPAYRKRWGERYGFYRRPLKPGGIMLHSVSVGETLAAIPLVRALRHRYPDLPITVTTMTPTGSERVQSAFGNDVQHVYLPYDLPDALNRFLNKIDPKLVLIMETELWPNLIAALHKRHIPLVIANARLSARSAAGYAKLGKFVRTLLRRITLIAAQNEEDGERFVALGAKNNQVTVTGSLKFDISVTPQLAAKAVTLRRQWAPHRPVWIATSTHDGEESIVIAAHQALLHQFPNLLLILVPRHPERFPDAINLVRQAGLSYITRSSGEVPSASTQVVVGDTMGELMLLYGIADLAFVGGSLVERGGHNPLEAAAHAIPVLMGPHTFNFKDICARLDQASGLITITDAATLAKEVSSLLTDADYRNFYGRHAVEVLYQNQGALQRLLQLLEPYLPPKTHLEHHHHHH | failed |
| MLETSSHFLKSFRLKRYIGFLLISLALLITPFVRIDGAHLFLISFEHKQLHFLGKIFSAEELQVMPFMVILLFIGIFFITTSLGRVWCGWACPQTFLRVLYRDVIETKIFKLHKKISNKQESPKNTPSYKIRKVLSVLLFAPVVAGLMMLFFFYFIAPEDFFMYLKNPSDHPIAMGFWLFSTAVVLFDIVVVAERFCIYLCPYARVQSVLYDNDTLNPIYDEKRGGALYNNQGHLFPLPPKKRSPENECVNCLHCVQVCPTHIDIRKGLQLECINCLECVDACTITMAKFNRPSLIQWSSTNAINTRQKVHLVRLKTIAYMGVIAIVIALLAITSFKKERMLLDINRNSDLYELRSSGYVDNDYVFLFHNTDNKDHEFYFKVLGQKDIQIKKPLNPIAIKAGQKIKAVVILRKPLKSNATEYKNAKDALIPITIQAYSADDKNITIERESVFIAPSED | failed |
| MLETVAGVTIGASCIILTIALTKKLGPEWAWINRKLIHLSIIPAALFFYYGIIPREIFSPAAALFGIAQLLAHVKNRELNWYQLKQNYGEVFFAFSASFITFVFPRDYASALLLVMAISDGVTGIIRHYYFKRNGFNVKLKKHWTGSLGYIITAIIIAVAFLDGNIIEKVGWAFILMLAEYQPWIDDNLAVPLVGSALYFLY | failed |
